Experimental data from PMC4861916, “Characterization of a Citrus R2R3-MYB Transcription Factor that Regulates the Flavonol and Hydroxycinnamic Acid Biosynthesis”.

B1: Cs4CL promoter probe WT (dsDNA)
DNA 1: TTAACTGCACCTACCACACCCA
DNA 2: TGGGTGTGGTAGGTGCAGTTAA
B2: Cs4CL promoter probe mutant (dsDNA)
DNA 1: TTAACTGCTCTAGACACACCCA
DNA 2: TGGGTGTGTCTAGAGCAGTTAA
B3: SlFLS promoter probe WT (dsDNA)
DNA 1: CTTATATCACCTACTCAACTTA
DNA 2: TAAGTTGAGTAGGTGATATAAG
B4: SlFLS promoter probe mutant (dsDNA)
DNA 1: CTTATATCGTCGACTCAACTTA
DNA 2: TAAGTTGAGTCGACGATATAAG
B5: CsCHS promoter probe WT (dsDNA)
DNA 1: TTGATTTAACCTACCCCCATTG
DNA 2: CAATGGGGGTAGGTTAAATCAA
B6: CsCHS promoter probe mutant (dsDNA)
DNA 1: TTGATTTCTAGAACCCCCATTG
DNA 2: CAATGGGGGTTCTAGAAATCAA

Target: CsMYBF1 (Citrus, UniProt A0A125SL50 1-337)
Sequence (A0A125SL50 entry or part of it): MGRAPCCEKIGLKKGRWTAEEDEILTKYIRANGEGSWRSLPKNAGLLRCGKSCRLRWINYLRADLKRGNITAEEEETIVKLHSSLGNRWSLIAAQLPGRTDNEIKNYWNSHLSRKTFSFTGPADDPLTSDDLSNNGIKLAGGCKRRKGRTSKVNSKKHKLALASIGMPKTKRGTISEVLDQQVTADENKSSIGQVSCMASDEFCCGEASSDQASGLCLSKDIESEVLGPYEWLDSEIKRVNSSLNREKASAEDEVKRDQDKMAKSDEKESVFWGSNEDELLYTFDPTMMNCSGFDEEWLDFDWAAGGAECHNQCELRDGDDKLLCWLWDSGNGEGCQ
Test: EMSA; 0.1% Nonidet P-40, 1 mM benzamidine, 0.5 mM PMSF, 0.5 mM DTT, 50 ug/mL BSA, 100 ng/uL poly(dI-dC), 5 uM Cy3 probe, 1 ug protein in 20 uL, 4 C 2 h; 6% PAGE in 0.5x TBE at 4 C; salt and pH not stated
Details: protein: recombinant; tags: His (pET28a); label: Cy3

| Binder | binding result |
| --- | --- |
| B1 | binds |
| B2 | no binding |
| B3 | binds |
| B4 | no binding |
| B5 | binds |
| B6 | no binding |
